Data published in US20070014767A1.

Assays:
[1] = target: TGFβ1 (human recombinant) (human) (UniProt P01137); assay: flow cytometry; inhibition of binding of TGFβ1-biotin to MV-1-Lu cell receptors, peptide 420 µg/ml, peptide incubated with TGFβ1-biotin
[2] = target: TGFβ1 (human recombinant) (human) (UniProt P01137); assay: affinity labelling of MV-1-Lu cells with 125I-TGFβ1, titration of P144; conditions: scale: times the molar concentration of 125I-TGFβ1
[3] = target: TGFβ1 (human recombinant) (human) (UniProt P01137); assay: cell-based or functional assay
[4] = target: TGFβ1 cell receptors on MV-1-Lu cells (mink); assay: flow cytometry; inhibition of binding of TGFβ1-biotin to MV-1-Lu cell receptors, peptide 420 µg/ml, peptide incubated with the cells
[5] = target: TGFβ1 cell receptors on MV-1-Lu cells (mink); assay: cell-based or functional assay

TGFβ1 (human recombinant) (human), sequence (P01137 279-390 limits assumed): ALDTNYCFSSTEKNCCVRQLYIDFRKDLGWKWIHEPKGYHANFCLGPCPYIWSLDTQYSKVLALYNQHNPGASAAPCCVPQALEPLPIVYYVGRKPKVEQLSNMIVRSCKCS

Molecule	Cytometry (% inhibition) [1]	peptide concentration at which inhibition of 125I-TGFβ1 binding to the cell receptors is lost [2]	Bioassay (% inhibition) of TGFβ1 activity: growth of MV-1-Lu cells, TGFβ1 200 pg/ml, peptide 200 µg/ml [3]	Cytometry (% inhibition) [4]	Bioassay (% inhibition) of TGFβ1 activity: growth of MV-1-Lu cells, TGFβ1 200 pg/ml, peptide 200 µg/ml [5]
peptide P144(729-742)	80%	200000	88%		
LYNQHNPGASAAPCCA [peptide P18(343-358)]				6.5%	18.2%
HEPKGYHANFCLGPCPYIWSLDT [peptide P29(313-335)]				92.3%	77.6%

Other lines, results leading:

Cytometry (% inhibition) [1]	peptide concentration at which inhibition of 125I-TGFβ1 binding to the cell receptors is lost [2]	Bioassay (% inhibition) of TGFβ1 activity: growth of MV-1-Lu cells, TGFβ1 200 pg/ml, peptide 200 µg/ml [3]	Cytometry (% inhibition) [4]	Bioassay (% inhibition) of TGFβ1 activity: growth of MV-1-Lu cells, TGFβ1 200 pg/ml, peptide 200 µg/ml [5]	Molecule
			86%	40%	HANFCLGPCPYIWSLA [peptide P11(319-333)]
			77%	96%	FCLGPCPYIWSLDTA [peptide P12(322-335)]
